Experimental findings from patent CN110028581A are described below.

Assay [1] has as its target 微囊藻毒素抗体IgG in ascites (腹水).
Assay [2] concerns the target 微囊藻毒素抗体Fab片段 (microcystin antibody Fab fragment).
For assay [3] the target is unchanged. Description: ic-ELISA: free MC-LR (1000 ng/mL dilution) against coated MC-LR-OVA for the Fab.

As a reminder, the IC20 is the concentration needed for an effect of 20%. High values mean a need for much substance, low ones an effect from little substance. A word on the IC50: it is the concentration needed to halve the response being measured. Higher therefore signals weaker potency in that assay. The IC80 is the concentration at which the effect reaches the 80% level. A lower IC80 goes with an effect from little substance. Take 微囊藻毒素-LR (microcystin-LR) (peptide): in assay [1], the 抑制率 (inhibition rate) came to 91%. In assay [2], the IC20 is 0.15 ng/mL, the IC50 amounted to 0.56 ng/mL and the concentration for an effect of 80% (IC80) turned out to be 2.1 ng/mL. The substance also registered a 抑制率 (inhibition rate) in assay [3] of 99%.
